Test results taken from US8999342B2, “Anti-fibroblast activation protein antibodies and methods and uses thereof” (Ludwig Institute for Cancer Research, Ltd., priority 2009, dated 2015).
“Also recorded” adds a separate entry of the source.

Tests used:
[1] = target: T1, FAP (Homo sapiens, UniProt Q12884); settings: cited from earlier work
T1 sequence (Q12884 1-760): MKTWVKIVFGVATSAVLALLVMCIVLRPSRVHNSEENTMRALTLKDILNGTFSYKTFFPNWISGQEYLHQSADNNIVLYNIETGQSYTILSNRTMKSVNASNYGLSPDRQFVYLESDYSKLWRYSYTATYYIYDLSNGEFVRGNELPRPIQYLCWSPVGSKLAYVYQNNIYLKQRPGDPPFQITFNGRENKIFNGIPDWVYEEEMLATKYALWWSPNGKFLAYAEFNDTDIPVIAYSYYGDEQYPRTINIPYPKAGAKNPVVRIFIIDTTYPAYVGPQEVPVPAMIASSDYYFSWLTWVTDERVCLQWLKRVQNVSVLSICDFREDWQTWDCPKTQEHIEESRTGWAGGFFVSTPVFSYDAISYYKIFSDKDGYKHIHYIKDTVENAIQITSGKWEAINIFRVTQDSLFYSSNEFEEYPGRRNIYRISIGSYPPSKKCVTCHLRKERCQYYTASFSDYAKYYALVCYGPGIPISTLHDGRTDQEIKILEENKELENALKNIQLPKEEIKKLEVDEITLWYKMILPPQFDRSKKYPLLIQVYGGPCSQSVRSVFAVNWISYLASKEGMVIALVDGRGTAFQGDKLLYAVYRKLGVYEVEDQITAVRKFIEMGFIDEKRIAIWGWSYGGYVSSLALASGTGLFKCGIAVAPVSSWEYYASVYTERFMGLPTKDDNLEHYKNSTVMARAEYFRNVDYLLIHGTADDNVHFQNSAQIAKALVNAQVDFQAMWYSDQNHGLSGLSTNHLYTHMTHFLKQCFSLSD

[2] = test system: HT1080FAP cells; experiment: Internalization of FAP-antibody complexes by fluorescence microscopy; assay type: cell-based; settings: DyLight 488 labelled antibody, 37° C., two hours, acidic wash
Method: HT1080FAP cells were incubated with fluorescence labelled anti-FAP antibody Esc11 DYLIGHT® […] (flurorochrome conjugated antibody, ThermoScientific). […] When cells were warmed up to 37° C., rapid internalisation of FAP-Esc11 complexes could be detected with cytoplasmatic spots and vesicular accummulation (FIG. 11B).
Methods: HT1080FAP were grown on fibronectin coated glas slides over night. The cells were then treated with DYLIGHT® (Thermo Scientific) labeled ESC11IgG at either 4° C. or 37° C. for indicated time points. The cover slides were then mounted with flouromount for fluorescence microscopy. ESC11 DYLIGHT® 488 was detected at extention wavelaength of 488 nm and an emission of 518 nm. The results are depicted in FIG. 11.

[3] = target: T1, FAP; experiment: Competition assay on HT1080hFAP cells by flow cytometry; assay type: binding; parameters: expressed in transfected cells; host or cells: HT1080 (FAP-transfected); settings: IgG at 5 ug/ml before ESC11/ESC14 Fab fragments; HT1080FAP cells, 4° C.
Method: For measuring the competitive binding of ESC11 and ESC14, Fab fragments were titered on HT1080hFAP cells and binding was determined by flow cytometry. The concentration resulting in 90% of the maximal binding was used for the competition assay. HT1080FAP were incubated with the indicated antibodies at 5 ug/ml for 20 min at 4° C., then the ESC11-/ESC14 Fab fragments or PBS added at the pre-determined concentrations and incubated for 20 min at 4° C. Cells were washed once with PBS at 4° C. and fixed with 2% PFA on ice. Bound Fab fragment was detected by the myc-tag with biotinylated anti-myc and PE conjugated streptavidin. Cells were then analyzed by flow cytometry as described.

[4] = target: T1, FAP; experiment: Antibody mediated down-regulation of FAP expression; assay type: cell-based; parameters: expressed in transfected cells; host or cells: HT1080 (FAP-transfected); settings: FAP-transfected tumor cell lines (HT1080FAP), over night incubation, F19 staining
Method: For detection of loss of FAP expression, sub-confluent HT1080FAP cultures were trypsinized, washed with PBS and resuspended in RPMI, 10% FBS at 5×10^5 cells and 0.5 ml per well seeded in 12 well cell culture plates and the indicated concentration of ESCHIgG was added. After over night incubation, cells were trypsinized washed and stained with 10 ug/ml F19 followed by FITC-conjugated polyclonal goat anti-mouse. Fluorescence intensity of the cells was analyzed by flow cytometry. % FAP expression was calculated (100/(signal 0 ug/ml ESC11IgG−background signal))*(signal with ESC11IgG−backgroundsignal). One representative of three independent experiments is shown.

[5] = target: T2, CD26 (Homo sapiens, UniProt P27487); experiment: Binding specificity by ELISA on cell lysates, CD26; settings: HEK293 huCD26+ lysates
T2 construct: expressed in transfected cells; host or cells: HEK293 c-18 (ATCC CRL-10852), pEAK 8 vector; cell lysate coated on the plate
Method: FIG. 3: Specificity of Fabs ESC11 and ESC14. A. ELISA of Fabs (100 nM) binding to cell-lysate-coated plates. HT1080 FAP^+ (black bars), HT1080 (white bars), HEK293 huCD26^+ (striped bars), HEK293 muFAP^+ (grey bars), HEK293 mock transfected line (hatched bars). B. FACS analysis of Fab ESC11 (black line), ESC14 (grey line), and a non-binding control Fab (filled) on HT1080 FAP^+ cells (left) and 293 muFAP^+ cells (right)
Screening of Supernatants by ELISA and Flow Cytometry.
Supernatants of the output libraries after each selection round, and supernatants of individual bacterial clones after rounds three, four, and five were screened for FAP-binding phage by ELISA. Ninety-six-well microtiter plates (MAXISORP® Nunc) were coated with cell extracts cell extracts from HEK293 huFAP, HEK293 huCD26, HEK293 muFAP, or mock-transfected HEK293, blocked with 5% milk powder in PBS, incubated with phage-containing supernatants for 1 hr at room temperature and developed using an anti-M13-HRP conjugated antibody. […] Bound Fab antibody was detected with anti-myc tag antibody 9E10, followed by an anti-mouse immunoglobulin-PE conjugate. For competition assays, Fab antibodies were detected using biotinylated anti-myc tag 9E10, followed by strep-PE.

[6] = target: T3, dipeptidylpeptidase activity of FAP (Homo sapiens, UniProt Q12884); experiment: Fluorogenic dipeptidyl peptidase activity assay (Ala-Pro-AFC); assay type: biochemical; settings: 30 μg/ml IgGs added to extracts of human AF; Ala-Pro-AFC substrate
T3 construct: native FAP expressed on human AF; endogenous in cells
T3 sequence (Q12884 1-760): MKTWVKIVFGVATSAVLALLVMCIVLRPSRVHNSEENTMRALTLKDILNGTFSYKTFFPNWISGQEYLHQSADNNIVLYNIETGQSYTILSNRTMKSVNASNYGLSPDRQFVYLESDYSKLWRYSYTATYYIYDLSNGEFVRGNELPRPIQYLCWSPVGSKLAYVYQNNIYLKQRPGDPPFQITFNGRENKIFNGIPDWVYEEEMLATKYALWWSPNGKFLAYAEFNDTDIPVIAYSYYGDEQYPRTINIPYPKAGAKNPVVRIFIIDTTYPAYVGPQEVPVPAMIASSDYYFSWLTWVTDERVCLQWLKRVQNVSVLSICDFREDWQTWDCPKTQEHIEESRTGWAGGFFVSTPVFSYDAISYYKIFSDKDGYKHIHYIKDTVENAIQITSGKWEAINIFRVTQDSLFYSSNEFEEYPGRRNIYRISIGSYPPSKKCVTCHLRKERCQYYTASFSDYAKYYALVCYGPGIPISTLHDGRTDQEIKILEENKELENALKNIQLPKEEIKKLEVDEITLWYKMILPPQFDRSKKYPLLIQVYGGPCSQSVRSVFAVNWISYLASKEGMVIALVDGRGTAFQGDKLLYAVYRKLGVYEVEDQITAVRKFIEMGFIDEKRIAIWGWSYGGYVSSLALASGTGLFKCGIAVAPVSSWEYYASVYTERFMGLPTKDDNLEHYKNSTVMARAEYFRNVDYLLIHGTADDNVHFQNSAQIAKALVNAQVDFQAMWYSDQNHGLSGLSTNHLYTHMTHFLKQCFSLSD
Method: Fluorogenic Dipeptidyl Peptidase Activity Assay.
The diluted extracts were incubated with 0.5 mM Ala-Pro-AFC in 96-well plates at 37° C. and release of free AFC was monitored over time on a fluorescence reader (Victor Wallac, Perkin Elmer), using a 395 nm excitation/530 nm emission filter set. Dipeptidyl peptidase activity was determined from the slope of the fluorescence readings, after subtraction of background activity from a FAP negative sample.

[7] = test system: FAP-expressing cells; experiment: Attachment assay to ECM proteins; assay type: cell-based; settings: antibodies 10 ug/ml, 30 min preincubation
Method: Ninety-six-well microtiter plates (MAXISORP®, Nunc) were coated with indicated proteins at a concentration of 50 ug/ml and incubated over night at 4° C. Plates were washed three times with PBS and then blocked with 1% BSA for 60 min at 37° C. Cells were preincubated for 30 min with indicated antibodies at a final concentration of 10 ug/ml and then added to the coated plates. After 60 min, plates were washed with PBS to remove non adherent cells. Attached cells were stained using cristal violet and lysed by addition of Isopropanol with 0.4M HCl at a final volume of 75 ul/well. OD560 was measured on a ELISA reader.

[8] = test system: HEK293 cells stably transfected with mouse FAP; experiment: Detection of apoptotic cells by Annexin V staining, FAP-transfected cells; assay type: cell-based
[9] = test system: mock-transfected Hek293 cells; experiment: Detection of apoptotic cells by Annexin V staining, mock-transfected cells; assay type: cell-based
Method: Detection of Apoptotic Cells by Annexin V Staining.
FAP- and mock-transfected Hek293 cells were incubated in DMEM supplemented with 10% FBS in the presence of indicated amount of antibodies at RT. Control samples were either incubated in the absence of antibodies or at 4° C. in the presence of antibodies. After 60 min, cells were washed and stained with Propidium Iodide (Sigma) and Annexin V (Roche) following the manufacturer's instructions and the percentage of apoptosis was determined using flow cytometry.

T2 sequence (P27487 whole entry): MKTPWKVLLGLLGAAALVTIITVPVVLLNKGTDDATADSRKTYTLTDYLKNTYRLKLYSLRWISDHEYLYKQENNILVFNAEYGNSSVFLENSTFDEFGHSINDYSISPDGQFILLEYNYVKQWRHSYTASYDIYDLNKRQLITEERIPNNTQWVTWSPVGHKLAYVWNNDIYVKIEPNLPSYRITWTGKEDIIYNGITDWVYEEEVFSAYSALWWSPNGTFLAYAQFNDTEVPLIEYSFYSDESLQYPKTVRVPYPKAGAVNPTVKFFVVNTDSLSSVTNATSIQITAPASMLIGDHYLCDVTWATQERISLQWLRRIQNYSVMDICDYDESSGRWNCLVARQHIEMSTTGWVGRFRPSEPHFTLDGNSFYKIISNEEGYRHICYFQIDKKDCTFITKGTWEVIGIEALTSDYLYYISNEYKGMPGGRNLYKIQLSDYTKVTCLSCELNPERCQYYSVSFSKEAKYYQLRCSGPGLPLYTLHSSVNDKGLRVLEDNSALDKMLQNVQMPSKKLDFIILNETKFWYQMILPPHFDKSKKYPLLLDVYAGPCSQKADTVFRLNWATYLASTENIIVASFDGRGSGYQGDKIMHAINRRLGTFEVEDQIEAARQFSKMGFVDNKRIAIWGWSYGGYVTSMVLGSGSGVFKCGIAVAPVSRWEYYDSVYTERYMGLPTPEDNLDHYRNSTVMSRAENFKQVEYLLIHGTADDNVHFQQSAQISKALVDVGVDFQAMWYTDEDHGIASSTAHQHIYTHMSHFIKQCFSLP

## Sibrotuzumab: humanized version of F19
[1]; patients, phase I and phase II trials
  Safety and tolerability: safe and well tolerated
[1]; trace-labelling with ^131I, imaging analysis
  Accumulation at the tumor area: specific accumulation
[1]; unconjugated antibody, patients
  Anti-tumor or therapeutic activity: no anti-tumor or any therapeutic activity

B1: ESC11 IgG1: ESC11 variable domains in full human IgG1 format; heavy chain H to Q at position 1 (SEQ ID NO: 2) (antibody, V domains shown)
VH: QVQLQESGPGLVKPSETLSLTCTVSGGSISSNNYYWGWIRQTPGKGLEWIGSIYYSGSTNYNPSLKSRVTISVDTSKNQFSLKLSSVTAADTAVYYCARGARWQARPATRIDGVAFDIWGQGTMVTVSS
VL: ETTLTQSPGTLSLSPGERATLSCRASQTVTRNYLAWYQQKPGQAPRLLMYGASNRAAGVPDRFSGSGSGTDFTLTISRLEPEDFAVYYCQQFGSPYTFGQGTKVEIK
[2]
  Internalisation of FAP-antibody complexes: most of the antibody had internalized
[3]
  Competition for FAP binding: cross-inhibition
[4]
  Down-regulation of FAP expression: down-regulation of FAP expression; also recorded: dose-dependent reduction of FAP

B2: ESC11 Fab fragment: fully human anti-FAP Fab from phage library; VH SEQ ID NO: 1, VL SEQ ID NO: 3 (antibody, listed as Homo sapiens, V domains shown)
VH: HVQLQESGPGLVKPSETLSLTCTVSGGSISSNNYYWGWIRQTPGKGLEWIGSIYYSGSTNYNPSLKSRVTISVDTSKNQFSLKLSSVTAADTAVYYCARGARWQARPATRIDGVAFDIWGQGTMVTVSS
VL: ETTLTQSPGTLSLSPGERATLSCRASQTVTRNYLAWYQQKPGQAPRLLMYGASNRAAGVPDRFSGSGSGTDFTLTISRLEPEDFAVYYCQQFGSPYTFGQGTKVEIK
[4]
  Down-regulation of FAP expression: could not been observed

B3: ESC14: anti-FAP antibody clone ESC14, format (Fab or IgG) given by the context of the place (antibody, V domains shown)
VH: EVQLVQSGAEVKKPGASVKVSCKASGYTFTSYGISWVRQAPGQGLEWMGWISAYNGNTNYAQKLQGRVTMTTDTSTSTAYMELRSLRSDDTAVYYCARDWSRSGYYLPDYWGQGTLVTVSS
VL: DVVMTQSPLSLPVTLGQPASISCRSSQSLLHSNGYNYLDWYLQRPGQSPHLLIFLGSNRASGVPDRFSGSGSGTDFTLKISRVEAEDVGIYYCMQALQTPPTFGQGTKVEIK
[5]
  Cross-reaction with CD26: no binding
[6]
  Effect on DPP (protease) activity of FAP: no direct influence
[7]
  Attachment of FAP-expressing cells to ECM proteins (matrigel, type I collagen): significant inhibition
[8]; 4° C.
  Induction of apoptosis in the cold: could not be induced
[8]; HEK293 stably transfected with mouse FAP, RT, 60 min, Annexin V
  Induction of apoptosis: underwent apoptosis; also recorded: Induction of apoptosis
[9]
  Induction of apoptosis in mock-transfected cells: not altered at all
[4]
  Down-regulation of FAP expression: rapid FAP down-regulation

B4: ESC14 Fab fragment: fully human anti-FAP Fab from phage library; VH SEQ ID NO: 7, VL SEQ ID NO: 8 (antibody, listed as Homo sapiens, V domains shown)
VH: EVQLVQSGAEVKKPGASVKVSCKASGYTFTSYGISWVRQAPGQGLEWMGWISAYNGNTNYAQKLQGRVTMTTDTSTSTAYMELRSLRSDDTAVYYCARDWSRSGYYLPDYWGQGTLVTVSS
VL: DVVMTQSPLSLPVTLGQPASISCRSSQSLLHSNGYNYLDWYLQRPGQSPHLLIFLGSNRASGVPDRFSGSGSGTDFTLKISRVEAEDVGIYYCMQALQTPPTFGQGTKVEIK
[4]
  Down-regulation of FAP expression: could not been observed

B5: ESC14 IgG1: ESC14 variable domains cloned into a full human IgG1 format (antibody, V domains shown)
VH: EVQLVQSGAEVKKPGASVKVSCKASGYTFTSYGISWVRQAPGQGLEWMGWISAYNGNTNYAQKLQGRVTMTTDTSTSTAYMELRSLRSDDTAVYYCARDWSRSGYYLPDYWGQGTLVTVSS
VL: DVVMTQSPLSLPVTLGQPASISCRSSQSLLHSNGYNYLDWYLQRPGQSPHLLIFLGSNRASGVPDRFSGSGSGTDFTLKISRVEAEDVGIYYCMQALQTPPTFGQGTKVEIK
[3]
  Competition for FAP binding: cross-inhibition
[4]
  Down-regulation of FAP expression: down-regulation of FAP expression; also recorded: dose-dependent reduction of FAP
